The target of this assay is FvMYB1-GST (woodland strawberry (Fragaria vesca)). In words: pull-down; FvSTOP1-His and FvbHLH33-His incubated together with FvMYB1-GST; detection with anti-His, bands quantified with ImageJ against the incubation alone.

Substance FvSTOP1-His (natural protein) gave a binding strength with FvbHLH33-His present, against incubation alone (ImageJ) of 0.31 times. The substance FvbHLH33-His (natural protein) returned a binding strength with FvSTOP1-His present, against incubation alone (ImageJ) of 0.54 times.
